± gives the uncertainty stated by the source.
Assay: protein stability index of a GFP-peptide fusion (yeast GPS) (PSI 1-4); higher = more stable; sorted into four equal gates, so the index is relative within each strain
In short: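 The protein stability index combines read frequencies across sorting gates, each weighted by its gate number and then summed. To obtain those frequencies, a pooled yeast library of GFP fusions to tiled 17-residue yeast protein peptides, on a plasmid also expressing Cherry, was grown to mid-log phase in leucine-free medium. The cells were sorted into four equal gates by GFP/Cherry ratio before plasmid amplification by PCR and Illumina sequencing.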

Sequence	protein stability index (doa10∆)	protein stability index (pdr5∆)	protein stability index (san1∆)	protein stability index (ubr1∆)
EDYAIVTKGGTVENPLR [PRP28]	3.47 ± 0.16	2.98 ± 0.099	3.39 ± 0.055	3.44 ± 0.078
EEAAGTKMFEDRREKAE [SMC2]	3.4 ± 0.15	3.36 ± 0.18	3.26 ± 0.089	3.6 ± 0.11
EEAGEEEAKEEVTEEQA [RPS0A]	3.48 ± 0.12	3.5 ± 0.1	3.02 ± 0.13	3.64 ± 0.092
EEEATMTTSAVSPTVGK [YIL149C/MLP2]	3.25 ± 0.046	3.3 ± 0.037	3.229 ± 0.029	3.2 ± 0.035
EEESLHVFQYANRPRLV [RPC37]	1.36 ± 0.058	1.66 ± 0.081	1.79 ± 0.13	2.21 ± 0.047
EEFAYVDPARRQILFKY [MED6]	2.57 ± 0.085	2.19 ± 0.061	2.02 ± 0.09	2.06 ± 0.053
EEGEFIIDLYSLPEGLL [TAF14]	3.4 ± 0.088	3.54 ± 0.085	3.57 ± 0.058	3.52 ± 0.063
EEITCALDYLIPPPMPK [MED7]	1.86 ± 0.083	2.73 ± 0.21	2.06 ± 0.16	2.28 ± 0.071
EEKGWVPVTKLGRLVKA [RPS2]	3.45 ± 0.086	3.44 ± 0.13	3.51 ± 0.072	3.48 ± 0.072
EELILPNTKDAMSLYHS [PRP8]	3.18 ± 0.055	3.38 ± 0.043	3.36 ± 0.04	2.8 ± 0.042
EELLLKDLEIRKLEISS [GAL11]		2.31 ± 0.11	3.18 ± 0.081	1.09 ± 0.12
EENSQGNILDFNLNLPP [REC8]	3.06 ± 0.11	3.5 ± 0.14	3.18 ± 0.051	3.01 ± 0.079
EEQEEEPDREKIKLLTQ [RPC19]	2.93 ± 0.25	3.24 ± 0.11	2.52 ± 0.15	2.65 ± 0.23
EEQEKINSAPDFTQEDE [ISW2]	3.14 ± 0.11	3.56 ± 0.088	3.39 ± 0.081	3.55 ± 0.067
EEQKIVKKVVKEQTEAA [RPL34A]		3.23 ± 0.16	3.27 ± 0.061	3.13 ± 0.15
EETDEVSSESSDEAIIP [SIR3]	2.93 ± 0.068	2.52 ± 0.056	2.73 ± 0.065	2.82 ± 0.043
EETNVDIGVLEEYARRL [SMC4]		3.36 ± 0.24	3.64 ± 0.072	3.48 ± 0.1
EEVMRIALMGQDNKKIY [ESC2]	2.53 ± 0.07	2.72 ± 0.12	2.2 ± 0.11	2.64 ± 0.051
EFDRRILKKSLMTSHTK [RTT102]	2.94 ± 0.17	2.98 ± 0.092	2.4 ± 0.15	3.29 ± 0.093
EFIYLTKVLQFAAKQRQ [SNF2]	1.33 ± 0.19	1.28 ± 0.15	1.39 ± 0.15	
EFNGFSLYQVDPSGSYF [PRE8]	2.19 ± 0.057	2.05 ± 0.08	2.1 ± 0.15	2.43 ± 0.077
EFTPADPNLSFESSSSL [SSN2]	3.05 ± 0.17	3.09 ± 0.12	2.39 ± 0.16	2.79 ± 0.15
EFTSKIGFTIKEYENHS [SMC1]	2.59 ± 0.11	3.04 ± 0.061	2.84 ± 0.12	3.01 ± 0.063
EGDASPFTDITVEGISK [RPB2]	3.17 ± 0.14	2.97 ± 0.17	3.08 ± 0.092	3.07 ± 0.21
EGDGAKAAISFGAKPEE [YJL041W/NSP1]	3.21 ± 0.1	3 ± 0.087	3.43 ± 0.082	3.43 ± 0.053

Sequence	protein stability index (doa10∆)	protein stability index (pdr5∆)	protein stability index (san1∆)	protein stability index (ubr1∆)
EGEPVNSPNYFVAKLAA [COR1]	3.31 ± 0.16	3.16 ± 0.14	3.37 ± 0.13	3.14 ± 0.17
EGKYIVDVAKDINVKDL [RPT6]	3.44 ± 0.12	3.21 ± 0.11	2.67 ± 0.14	3.24 ± 0.093
EGNTVLEKGNNPSVKQG [SWP82]	3.11 ± 0.067	3.12 ± 0.082	3.26 ± 0.065	2.87 ± 0.064
EGNYRNLNNLKQENAYL [RPB8]	3.31 ± 0.084	3.31 ± 0.085	3.27 ± 0.08	3.43 ± 0.068
EGQADIDMESDVEDDDK [POP7]	3.37 ± 0.095	3.18 ± 0.11	3.3 ± 0.07	3.27 ± 0.042
EGRLLDNVQANDPAREK [SNF12]	2.8 ± 0.11	3.21 ± 0.065	2.96 ± 0.05	3.18 ± 0.042
EGSKSHPFGHALVAGIE [RPL27A]	2.73 ± 0.061	2.83 ± 0.069	2.59 ± 0.071	2.76 ± 0.047
EHKSQVVLYNYYLGQYY [CSN12]	2.23 ± 0.12	1.81 ± 0.13	2.71 ± 0.086	2.03 ± 0.055
EIALKGLESLLNIGLGA [YCS4]	2.65 ± 0.11	2.47 ± 0.092	3.03 ± 0.13	2.77 ± 0.21
EIDVENHDRINISNNLQ [RPN8]	3.21 ± 0.061	3.26 ± 0.082	3.32 ± 0.043	3.21 ± 0.054
EIGILDHVDGSSEFVSQ [RRP46]	1.69 ± 0.067	2.01 ± 0.059	2.24 ± 0.065	2.5 ± 0.064
EIGITQQRIVSAYEASM [RRP4]	3.04 ± 0.098	2.98 ± 0.081	2.75 ± 0.12	2.85 ± 0.065
EIIFLGAQIVSKQIFTH [ARP9]	1.22 ± 0.1	1.33 ± 0.075	1.14 ± 0.14	1.25 ± 0.036
EIKKLLATNSLVEEFML [DIS3]	2.32 ± 0.055	1.9 ± 0.052	2.54 ± 0.057	2.3 ± 0.048
EINLSKIFQTTPEKDLF [YCS4]	2.72 ± 0.11	2.29 ± 0.075	1.5 ± 0.091	2.7 ± 0.055
EINPFLLGTMAGGAADC [PRE2]	2.88 ± 0.18	3.22 ± 0.12	2.75 ± 0.15	2.61 ± 0.15
EINSVGNPGLPQYQYQR [ITC1]	2.66 ± 0.11	2.59 ± 0.077	2.92 ± 0.057	3.16 ± 0.067
EISAAHNKLNITSDALE [SMC3]	2.64 ± 0.17		2.58 ± 0.23	
EITDAYCFAKNDLFFNN [YMR129W/POM152]	2.59 ± 0.059	2.56 ± 0.063	2.22 ± 0.071	2.61 ± 0.056
EITSVLSNLHESNKRYR [SNF12]	3.1 ± 0.085	3.05 ± 0.071	2.94 ± 0.054	3.08 ± 0.052
EIVDTYQEDIFVSESPS [ISW2]	2.83 ± 0.093	2.8 ± 0.11	3.35 ± 0.092	2.6 ± 0.07
EKACQVLKYMLLSKIML [RPN6]	1.76 ± 0.049	1.49 ± 0.048	1.13 ± 0.1	1.41 ± 0.031
EKAKEMIRLLGSESDDS [ECM29]	2.51 ± 0.2	2.13 ± 0.11		1.53 ± 0.14
EKASGFEDSMQFKKLTH [PRP8]	2.81 ± 0.085	3.12 ± 0.083	2.99 ± 0.087	3.01 ± 0.084
EKCKEINVETVYDIMAL [BRR2]	2.28 ± 0.059	2.44 ± 0.049	2.57 ± 0.07	2.5 ± 0.046

Reference: the supplement of paper PMC9732359
